{
  "source": "patent US9592281B2",
  "about": "“Method for inducing immunity with a peptide fragment from human CAPRIN-1” (Toray Industries, Inc., priority 2008, dated 2017)",
  "molecules": {"B1": {"name": "SEQ ID NO: 8: recombinant polypeptide having the amino acid sequence shown by SEQ ID NO: 8 (canine CAPRIN-1), expressed in E. coli (protein, listed as Canis familiaris)", "chain": "MPSATSLSGSGSKSSGPPPPSGSSGSEAAAAAGAAGAAGAGAAAPASQHPATGTGAVQTEAMKQILGVIDKKLRNLEKKKGKLDDYQERMNKGERLNQDQLDAVSKYQEVTNNLEFAKELQRSFMALSQDIQKTIKKTARREQLMREEAEQKRLKTVLELQYVLDKLGDDEVRTDLKQGLNGVPILSEEELSLLDEFYKLADPERDMSLRLNEQYEHASIHLWDLLEGKEKSVCGTTYKALKEIVERVFQSNYFDSTHNHQNGLCEEEEAASAPTVEDQVAEAEPEPAEEYTEQSEVESTEYVNRQFMAETQFSSGEKEQVDEWTVETVEVVNSLQQQPQAASPSVPEPHSLTPVAQADPLVRRQRVQDLMAQMQGPYNFIQDSMLDFENQTLDPAIVSAQPMNPTQNMDMPQLVCPPVHSESRLAQPNQVPVQPEATQVPLVSSTSEGYTASQPLYQPSHATEQRPQKEPIDQIQATISLNTDQTTASSSLPAASQPQVFQAGTSKPLHSSGINVNAAPFQSMQTVFNMNAPVPPVNEPETLKQQNQYQASYNQSFSSQPHQVEQTDLQQEQLQTVVGTYHGSQDQPHQVTGNHQQPPQQNTGFPRSSQPYYNSRGVSRGGSRGARGLMNGYRGPANGFRGGYDGYRPSFSNTPNSGYTQSQFSAPRDYSGYQRDGYQQNFKRGSGQSGPRGAPRGRGGPPRPNRGMPQMNTQQVN"}, "B2": {"name": "SEQ ID NO: 6: recombinant polypeptide having the amino acid sequence shown by SEQ ID NO: 6 (canine CAPRIN-1), expressed in E. coli (protein, listed as Canis familiaris)", "chain": "MALSQDIQKTIKKTARREQLMREEAEQKRLKTVLELQYVLDKLGDDEVRTDLKQGLNGVPILSEEELSLLDEFYKLADPERDMSLRLNEQYEHASIHLWDLLEGKEKSVCGTTYKALKEIVERVFQSNYFDSTHNHQNGLCEEEEAASAPTVEDQVAEAEPEPAEEYTEQSEVESTEYVNRQFMAETQFSSGEKEQVDEWTVETVEVVNSLQQQPQAASPSVPEPHSLTPVAQADPLVRRQRVQDLMAQMQGPYNFIQDSMLDFENQTLDPAIVSAQPMNPTQNMDMPQLVCPPVHSESRLAQPNQVPVQPEATQVPLVSSTSEGYTASQPLYQPSHATEQRPQKEPIDQIQATISLNTDQTTASSSLPAASQPQVFQAGTSKPLHSSGINVNAAPFQSMQTVFNMNAPVPPVNEPETLKQQNQYQASYNQSFSSQPHQVEQTEGCRK"}, "B3": {"name": "monoclonal antibody against CAPRIN-1 having the heavy-chain variable region of SEQ ID NO: 78 and the light-chain variable region of SEQ ID NO: 79: mouse monoclonal antibody against human CAPRIN-1 … (antibody, listed as Mus musculus, V domains shown)", "VH": "PRASLGVSETLLCTSGFTFTDYYMSWVRQPPGKALEWLGFIRNKANGYTTEYSASVKGRFTISRDNSQSILYLQMNTLRAEDSATYYCARANWAFDYWGQGTTVTVSSK", "VL": "SGDRVSLSCRASQSISNYLHWYQQKSHESPRLLIKYASQSISGIPSRFSGSGSGTDFTLSINSVETEDFGMYFCQQSNSWPYTFGGGTKLEIKQ", "notes": "mouse monoclonal antibody against human CAPRIN-1 reacting with breast cancer cell surfaces"}},
  "key": {"[1]": {"system": "U-87MG human glioma cells"}, "[2]": {"system": "canine peripheral blood mononuclear cells", "experiment": "ELISpot assay of IFNγ using peripheral blood mononuclear cells of administered dogs", "type": "cell-based, dog", "conditions": "5×10^5 cells/well, restimulated with the administered polypeptide 24 hours, no spots before administration"}, "[3]": {"system": "tumor of cancer-bearing dog (breast cancer)", "experiment": "Antitumor evaluation of recombinant protein in cancer-bearing dog", "type": "in vivo", "conditions": "dog with breast cancer; for tumor size: tumor about 86 mm^3 at administration, 100 μg with Freund's incomplete adjuvant, 3 times to regional lymph node", "experimental": "A cancer-bearing dog (breast cancer) having a tumor on the epidermis was subjected to evaluation of the antitumor effects of the recombinant protein purified above.\nThe recombinant polypeptide having the amino acid sequence shown by SEQ ID NO: 6 purified in the above-described manner (100 μg, 0.5 ml) was mixed with the equivalent amount of the Freund's incomplete adjuvant (Wako Pure Chemical Industries, Ltd.) to prepare a cancer therapeutic agent. The resulting agent was administered 3 times in total to the regional lymph node in the vicinity of the tumor, as an initial-administration, and 3 days and 7 days thereafter.\nAlso, 100 μg of canine interleukin 12 was administered together with the agent subcutaneously.\nFurther, a mixture of 0.5 ml of the recombinant polypeptide having the amino acid sequence shown by SEQ ID NO: 8 and 0.5 ml of the Freund's incomplete adjuvant was administered to another dog having breast cancer 3 times in total in the same manner as described above. Also, 100 μg of canine interleukin 12 was administered together with the agent subcutaneously."}, "[4]": {"system": "human breast cancer cell line, MDA-MB-231V", "experiment": "Flow cytometry reactivity of monoclonal antibodies with breast cancer cell surface", "type": "cell-based", "conditions": "10^6 MDA-MB-231V cells; control with medium instead of antibody", "experimental": "Subsequently, monoclonal antibodies having reactivity with the surfaces of the breast cancer cells expressing CAPRIN-1 were selected from among the above monoclonal antibodies. Specifically, 10^6 cells of human breast cancer cell line, MDA-MB-231V, were centrifuged in a 1.5-ml microcentrifuge tube, 100 μl of the hybridoma supernatants prepared above was added thereto, and the resultants were allowed to stand on ice for 1 hour. After the plate was washed with PBS, the FITC-labeled goat anti-mouse IgG antibody (Invitrogen) diluted 500-fold with PBS containing 0.1% fetal bovine serum was added, and the plate was allowed to stand on ice for 1 hour. After the plate was washed with PBS, fluorescence intensity was measured using the FACSCalibur (Becton Dickinson). Separately, as a control, the same procedure was carried out except for adding a medium instead of the antibodies. […] The sequence of the heavy-chain variable region of one of such monoclonal antibodies is shown by SEQ ID NO: 78 and that of the light-chain variable region thereof is shown by SEQ ID NO: 79."}, "[5]": {"conditions": "10 days after the administration"}, "[6]": {"conditions": "30 days after the administration"}},
  "note": "Residues, ends and D or L forms follow the SMILES beside them.",
  "data": [
    {"molecule": "CSCC[C@H](NC(=O)[C@@H](NC(=O)[C@H](CCC(N)=O)NC(=O)[C@H](CS)NC(=O)[C@H](CO)NC(=O)[C@H](Cc1ccc(O)cc1)NC(=O)[C@H](CO)NC(=O)[C@@H](N)CCCNC(=N)N)C(C)C)C(=O)N[C@@H](Cc1c[nH]cn1)C(=O)N[C@@H](CCC(=O)O)C(=O)O", "note": "[SEQ ID NO: 77] (H-RSYSCQVMHE-OH)", "values": [
      {"measurement": "cytotoxic activity of peptide-stimulated CD8+ T cells against JTK-LCL cells", "setting": "HLA-A24+ JTK-LCL cells", "result": "did not exhibit cytotoxicity"},
      {"measurement": "cytotoxic activity of peptide-stimulated CD8+ T cells against U-87MG cells", "setting": "[1]", "result": "did not show cytotoxic activity"}
    ]},
    {"molecule": "B1", "values": [
      {"measurement": "number of IFNγ spots detected in peripheral blood mononuclear cells", "setting": "[2]; [5]", "result": 32, "unit": "spots"},
      {"measurement": "number of IFNγ spots detected in peripheral blood mononuclear cells", "setting": "[2]; [6]", "result": 117, "unit": "spots"},
      {"measurement": "tumor completely regressed, time after the initial administration", "setting": "[3]; with Freund's incomplete adjuvant, 3 times, plus 100 μg canine interleukin 12 subcutaneously, tumor at administration about 123 mm^3 (SEQ ID NO: 2), about 96 mm^3 (SEQ ID NO: 8)", "result": 27, "unit": "days"}
    ]},
    {"molecule": "B2", "values": [
      {"measurement": "number of IFNγ spots detected in peripheral blood mononuclear cells", "setting": "[2]; [5]", "result": 13, "unit": "spots"},
      {"measurement": "number of IFNγ spots detected in peripheral blood mononuclear cells", "setting": "[2]; [6]", "result": 82, "unit": "spots"},
      {"measurement": "tumor size", "setting": "[3]; 10 days after the initial administration", "result": 55, "unit": "mm^3"},
      {"measurement": "tumor size", "setting": "[3]; 20 days after the initial administration", "result": 30, "unit": "mm^3"},
      {"measurement": "tumor size", "setting": "[3]; 30 days after the initial administration", "result": 20, "unit": "mm^3"}
    ]},
    {"molecule": "B3", "values": [
      {"measurement": "reactivity with breast cancer cell surface (fluorescence intensity, FACS)", "setting": "[4]", "result": "reacts with the cancer cell surface"}
    ]}
  ]
}
